Test results as given in PMC12127727, “Double the Double: Revisiting BCL11B's Multimerization” (Proteins, 2025).

B1: BCL11B_(42–94) WT (N-terminal wild-type zinc finger domain, ZF0) (domain or fragment, human, UniProt Q9C0K0 42-94, looked up)
chain: SGLGLMVGGPDPDLLTCGQCQMNFPLGDILVFIEHKRKQCGGSLGACYDKALD
notes: B Cell Lymphoma/Leukemia 11B (BCL11B), human, residues 42-94, atypical CCHC zinc finger domain ZF0; source: E. coli, recombinantly expressed, purified
B2: BCL11B_(42–94) C81H (domain or fragment, human, UniProt Q9C0K0 42-94, looked up)
chain: SGLGLMVGGPDPDLLTCGQCQMNFPLGDILVFIEHKRKQHGGSLGACYDKALD
notes: BCL11B, human, residues 42-94 (ZF0) with C81H, which turns the CCHC zinc finger into a C2H2 zinc finger; also called zinc finger mutant C81H; source: E. coli, recombinantly expressed, purified
B3: BCL11B_(42–94) K77A (domain or fragment, human, UniProt Q9C0K0 42-94, looked up)
chain: SGLGLMVGGPDPDLLTCGQCQMNFPLGDILVFIEHARKQCGGSLGACYDKALD
notes: BCL11B, human, residues 42-94 (ZF0) with K77A; also called lysine mutant K77A; source: E. coli, recombinantly expressed, purified
B4: BCL11B_(42–94) I74A (domain or fragment, human, UniProt Q9C0K0 42-94, looked up)
chain: SGLGLMVGGPDPDLLTCGQCQMNFPLGDILVFAEHKRKQCGGSLGACYDKALD
notes: BCL11B, human, residues 42-94 (ZF0) with I74A; CD spectra indicate an incomplete zinc finger fold; source: E. coli, recombinantly expressed, purified
B5: BCL11B_(42–94) I70A (domain or fragment, human, UniProt Q9C0K0 42-94, looked up)
chain: SGLGLMVGGPDPDLLTCGQCQMNFPLGDALVFIEHKRKQCGGSLGACYDKALD
notes: BCL11B, human, residues 42-94 (ZF0) with I70A; CD spectra indicate an incomplete zinc finger fold; source: E. coli, recombinantly expressed, purified
B6: BCL11B_(42–94) L71A/V72A (domain or fragment, human, UniProt Q9C0K0 42-94, looked up)
chain: SGLGLMVGGPDPDLLTCGQCQMNFPLGDIAAFIEHKRKQCGGSLGACYDKALD
notes: BCL11B, human, residues 42-94 (ZF0) with L71A and V72A; also called double mutant L71A/V72A; source: E. coli, recombinantly expressed, purified
B7: BCL11B_(42–426) WT (domain or fragment, human, UniProt Q9C0K0 42-426, looked up)
chain: SGLGLMVGGPDPDLLTCGQCQMNFPLGDILVFIEHKRKQCGGSLGACYDKALDKDSPPPSSRSELRKVSEPVEIGIQVTPDEDDHLLSPTKGICPKQENIAGPCRPAQLPAVAPIAASSHPHSSVITSPLRALGALPPCLPLPCCSARPVSGDGTQGEGQTEAPFGCQCQLSGKDEPSSYICTTCKQPFNSAWFLLQHAQNTHGFRIYLEPGPASSSLTPRLTIPPPLGPEAVAQSPLMNFLGDSNPFNLLRMTGPILRDHPGFGEGRLPGTPPLFSPPPRHHLDPHRLSAEEMGLVAQHPSAFDRVMRLNPMAIDSPAMDFSRRLRELAGNSSTPPPVSPGRGNPMHRLLNPFQPSPKSPFLSTPPLPPMPPGGTPPPQPPAKS
notes: source: E. coli, recombinantly expressed, purified
B8: BCL11B_(42–220) WT (domain or fragment, human, UniProt Q9C0K0 42-220, looked up)
chain: SGLGLMVGGPDPDLLTCGQCQMNFPLGDILVFIEHKRKQCGGSLGACYDKALDKDSPPPSSRSELRKVSEPVEIGIQVTPDEDDHLLSPTKGICPKQENIAGPCRPAQLPAVAPIAASSHPHSSVITSPLRALGALPPCLPLPCCSARPVSGDGTQGEGQTEAPFGCQCQLSGKDEPSS
notes: BCL11B, human, residues 42-220: ZF0 extended up until the first C2H2 zinc finger domain (ZF1); source: E. coli, recombinantly expressed, purified

Molecular target: the molecule itself
Assay: cross-linking; constructs incubated with BS(PEG)5 (bis-succinimide ester-activated PEG, 21.7 Å), then reducing 16% tricine SDS-PAGE of crosslinked and control samples

**Q.** How did the “stoichiometry N” value turn out when B1 was run?
**A.** 4

**Q.** Which “stoichiometry N” value does the source give for B2 here?
**A.** 4

**Q.** With B3 as the protein, how does the “stoichiometry N” value read?
**A.** 2

**Q.** For B4, which “stoichiometry N” value is on record?
**A.** 2

**Q.** B5 was tested. Which “stoichiometry N” value did it give?
**A.** 2

**Q.** For B6, which “stoichiometry N” value is on record?
**A.** 4

Molecular target: the molecule itself
Assay: SEC; analytical size exclusion chromatography of the purified recombinant constructs; stoichiometric factors calculated from elution volumes with a calibration curve (Figure S1); rough estimate of molecular weights

**Q.** B7 was tested. Which “stoichiometry N” value did it give?
**A.** 4

**Q.** B1 was tested. Which “stoichiometry N” value did it give?
**A.** 7

**Q.** B8 was tested. Which “stoichiometry N” value did it give?
**A.** 16.6
